T1: human GLP-2 receptor (hGLP2-R) (human, UniProt O95838 1-553)
T1 sequence (looked up): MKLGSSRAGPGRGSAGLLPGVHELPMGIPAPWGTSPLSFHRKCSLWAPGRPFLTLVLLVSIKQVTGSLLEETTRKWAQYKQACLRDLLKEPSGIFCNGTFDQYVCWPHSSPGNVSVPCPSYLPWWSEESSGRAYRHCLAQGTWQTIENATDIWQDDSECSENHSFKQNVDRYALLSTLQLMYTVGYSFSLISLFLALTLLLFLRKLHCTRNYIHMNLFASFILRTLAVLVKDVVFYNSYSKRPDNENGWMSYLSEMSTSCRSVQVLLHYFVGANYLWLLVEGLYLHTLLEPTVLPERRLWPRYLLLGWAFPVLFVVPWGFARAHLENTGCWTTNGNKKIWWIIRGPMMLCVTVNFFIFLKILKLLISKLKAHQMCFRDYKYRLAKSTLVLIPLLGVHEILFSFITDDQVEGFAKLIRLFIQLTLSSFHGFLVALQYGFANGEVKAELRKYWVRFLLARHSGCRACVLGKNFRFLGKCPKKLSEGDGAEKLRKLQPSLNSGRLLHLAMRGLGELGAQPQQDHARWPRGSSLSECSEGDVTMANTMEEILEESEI


Experiments:
[1] = target: human glucagon-like peptide 1 receptor (GLP-1 R) (human, UniProt P43220 24-463); assay: cell-based or functional assay
[2] = target: T1, human GLP-2 receptor (hGLP2-R); assay: cell-based or functional assay

Binder	EC50 GLP-1 (nM); cAMP response [1]	EC50 GLP-2 (nM); cAMP response [2]
HXEGSFTSELATILDGXAARDFIAWLIEHKITD (HELM PEPTIDE1{H.[Aib].E.G.S.F.T.S.E.L.A.T.I.L.D.G.K.A.A.R.D.F.I.A.W.L.I.E.H.K.I.T.D}|PEPTIDE2{[O=C(O)CCCCCCCCCCCCCCCCC(=O)[*:2]].[gGlu]}$PEPTIDE1,PEPTIDE2,17:R3-2:R2$$$V2.0; SMILES CC[C@H](C)[C@H](NC(=O)[C@H](Cc1ccccc1)NC(=O)[C@H](CC(=O)O)NC(=O)[C@H](CCCNC(=N)N)NC(=O)[C@H](C)NC(=O)[C@H](C)NC(=O)[C@H](CCCCNC(=O)CC[C@H](NC(=O)CCCCCCCCCCCCCCCCC(=O)O)C(=O)O)NC(=O)CNC(=O)[C@H](CC(=O)O)NC(=O)[C@H](CC(C)C)NC(=O)[C@@H](NC(=O)[C@@H](NC(=O)[C@H](C)NC(=O)[C@H](CC(C)C)NC(=O)[C@H](CCC(=O)O)NC(=O)[C@H](CO)NC(=O)[C@@H](NC(=O)[C@H](Cc1ccccc1)NC(=O)[C@H](CO)NC(=O)CNC(=O)[C@H](CCC(=O)O)NC(=O)C(C)(C)NC(=O)[C@@H](N)Cc1c[nH]cn1)[C@@H](C)O)[C@@H](C)O)[C@@H](C)CC)C(=O)N[C@@H](C)C(=O)N[C@@H](Cc1c[nH]c2ccccc12)C(=O)N[C@@H](CC(C)C)C(=O)N[C@H](C(=O)N[C@@H](CCC(=O)O)C(=O)N[C@@H](Cc1c[nH]cn1)C(=O)N[C@@H](CCCCN)C(=O)N[C@H](C(=O)N[C@H](C(=O)N[C@@H](CC(=O)O)C(=O)O)[C@@H](C)O)[C@@H](C)CC)[C@@H](C)CC) [Compound 8]	0.22 nM	0.039 nM
HXEGSFTSELATILDXLAARDFIAWLIEHKITD (HELM PEPTIDE1{H.[Aib].E.G.S.F.T.S.E.L.A.T.I.L.D.K.L.A.A.R.D.F.I.A.W.L.I.E.H.K.I.T.D}|PEPTIDE2{[O=C(O)CCCCCCCCCCCCCCCCC(=O)[*:2]].[gGlu]}$PEPTIDE1,PEPTIDE2,16:R3-2:R2$$$V2.0; SMILES CC[C@H](C)[C@H](NC(=O)[C@H](Cc1ccccc1)NC(=O)[C@H](CC(=O)O)NC(=O)[C@H](CCCNC(=N)N)NC(=O)[C@H](C)NC(=O)[C@H](C)NC(=O)[C@H](CC(C)C)NC(=O)[C@H](CCCCNC(=O)CC[C@H](NC(=O)CCCCCCCCCCCCCCCCC(=O)O)C(=O)O)NC(=O)[C@H](CC(=O)O)NC(=O)[C@H](CC(C)C)NC(=O)[C@@H](NC(=O)[C@@H](NC(=O)[C@H](C)NC(=O)[C@H](CC(C)C)NC(=O)[C@H](CCC(=O)O)NC(=O)[C@H](CO)NC(=O)[C@@H](NC(=O)[C@H](Cc1ccccc1)NC(=O)[C@H](CO)NC(=O)CNC(=O)[C@H](CCC(=O)O)NC(=O)C(C)(C)NC(=O)[C@@H](N)Cc1c[nH]cn1)[C@@H](C)O)[C@@H](C)O)[C@@H](C)CC)C(=O)N[C@@H](C)C(=O)N[C@@H](Cc1c[nH]c2ccccc12)C(=O)N[C@@H](CC(C)C)C(=O)N[C@H](C(=O)N[C@@H](CCC(=O)O)C(=O)N[C@@H](Cc1c[nH]cn1)C(=O)N[C@@H](CCCCN)C(=O)N[C@H](C(=O)N[C@H](C(=O)N[C@@H](CC(=O)O)C(=O)O)[C@@H](C)O)[C@@H](C)CC)[C@@H](C)CC) [Compound 11]	0.32 nM	0.085 nM
HXEGTFSSELATILDXLAARDFIAWLIEHKITD (HELM PEPTIDE1{H.[Aib].E.G.T.F.S.S.E.L.A.T.I.L.D.K.L.A.A.R.D.F.I.A.W.L.I.E.H.K.I.T.D}|PEPTIDE2{[O=C(O)CCCCCCCCCCCCCCCCC(=O)[*:2]].[gGlu]}$PEPTIDE1,PEPTIDE2,16:R3-2:R2$$$V2.0; SMILES CC[C@H](C)[C@H](NC(=O)[C@H](Cc1ccccc1)NC(=O)[C@H](CC(=O)O)NC(=O)[C@H](CCCNC(=N)N)NC(=O)[C@H](C)NC(=O)[C@H](C)NC(=O)[C@H](CC(C)C)NC(=O)[C@H](CCCCNC(=O)CC[C@H](NC(=O)CCCCCCCCCCCCCCCCC(=O)O)C(=O)O)NC(=O)[C@H](CC(=O)O)NC(=O)[C@H](CC(C)C)NC(=O)[C@@H](NC(=O)[C@@H](NC(=O)[C@H](C)NC(=O)[C@H](CC(C)C)NC(=O)[C@H](CCC(=O)O)NC(=O)[C@H](CO)NC(=O)[C@H](CO)NC(=O)[C@H](Cc1ccccc1)NC(=O)[C@@H](NC(=O)CNC(=O)[C@H](CCC(=O)O)NC(=O)C(C)(C)NC(=O)[C@@H](N)Cc1c[nH]cn1)[C@@H](C)O)[C@@H](C)O)[C@@H](C)CC)C(=O)N[C@@H](C)C(=O)N[C@@H](Cc1c[nH]c2ccccc12)C(=O)N[C@@H](CC(C)C)C(=O)N[C@H](C(=O)N[C@@H](CCC(=O)O)C(=O)N[C@@H](Cc1c[nH]cn1)C(=O)N[C@@H](CCCCN)C(=O)N[C@H](C(=O)N[C@H](C(=O)N[C@@H](CC(=O)O)C(=O)O)[C@@H](C)O)[C@@H](C)CC)[C@@H](C)CC) [Compound 10]	1.8 nM	0.087 nM
HXEGTFTSELATILDGXAARDFIAWLIEHKITD (HELM PEPTIDE1{H.[Aib].E.G.T.F.T.S.E.L.A.T.I.L.D.G.K.A.A.R.D.F.I.A.W.L.I.E.H.K.I.T.D}|PEPTIDE2{[O=C(O)CCCCCCCCCCCCCCCCC(=O)[*:2]].[gGlu]}$PEPTIDE1,PEPTIDE2,17:R3-2:R2$$$V2.0; SMILES CC[C@H](C)[C@H](NC(=O)[C@H](Cc1ccccc1)NC(=O)[C@H](CC(=O)O)NC(=O)[C@H](CCCNC(=N)N)NC(=O)[C@H](C)NC(=O)[C@H](C)NC(=O)[C@H](CCCCNC(=O)CC[C@H](NC(=O)CCCCCCCCCCCCCCCCC(=O)O)C(=O)O)NC(=O)CNC(=O)[C@H](CC(=O)O)NC(=O)[C@H](CC(C)C)NC(=O)[C@@H](NC(=O)[C@@H](NC(=O)[C@H](C)NC(=O)[C@H](CC(C)C)NC(=O)[C@H](CCC(=O)O)NC(=O)[C@H](CO)NC(=O)[C@@H](NC(=O)[C@H](Cc1ccccc1)NC(=O)[C@@H](NC(=O)CNC(=O)[C@H](CCC(=O)O)NC(=O)C(C)(C)NC(=O)[C@@H](N)Cc1c[nH]cn1)[C@@H](C)O)[C@@H](C)O)[C@@H](C)O)[C@@H](C)CC)C(=O)N[C@@H](C)C(=O)N[C@@H](Cc1c[nH]c2ccccc12)C(=O)N[C@@H](CC(C)C)C(=O)N[C@H](C(=O)N[C@@H](CCC(=O)O)C(=O)N[C@@H](Cc1c[nH]cn1)C(=O)N[C@@H](CCCCN)C(=O)N[C@H](C(=O)N[C@H](C(=O)N[C@@H](CC(=O)O)C(=O)O)[C@@H](C)O)[C@@H](C)CC)[C@@H](C)CC) [Compound 9]	0.056 nM	0.056 nM

From US20200297818A1 (ZEALAND PHARMA A S, published 2020)
